One assay concerns 92BR SOSIP.664 trimer. The experiment in a line: Negative stain EM of DH270.6 Fab-92BR SOSIP.664 complex. Further details: species or system HIV-1. The note with it: negatively stained EM; 6 molar excess of Fab, 4 °C, 1.5 h. The procedure: A 2.5 µl aliquot containing ∼0.01 mg/ml of the Fab-92BR SOSIP.664 complex was applied for 30 s onto a carbon-coated 400 Cu mesh grid that had been glow discharged at 5 mA for 2 min, followed by negative staining with 0.7% uranyl formate for 20 s. Samples were imaged using a FEI Tecnai T12 microscope operated at 120 kV and a magnification of ×52,000, yielding a pixel size of 2.13 Å at the specimen plane. Images were acquired with a Gatan 2 K CCD camera using a nominal defocus of 1500 nm at 10° tilt increments, up to 50°. The tilts provided additional particle orientations to improve the image reconstructions.
Particles were picked semi-automatically using EMAN2 and put into a particle stack. Initial, reference-free, two-dimensional (2D) class averages were calculated, and particles corresponding to complexes (with three Fabs bound) were selected into a substack for determination of an initial model. The initial model was calculated in EMAN2 using threefold symmetry and EMAN2 was used for subsequent refinement using threefold symmetry. In total, 12,941 particles were included in the final reconstruction for the 3D average of 92BR SOSIP.664 trimer complex with DH270.6. The resolution of the final model was estimated using a Fourier Shell Correlation (FSC) cut-off of 0.5. […]

Assay [1] deals with R327A mutant of 92BR SOSIP.664 Env. The experiment in a line: Biolayer interferometry (Octet QKe), DH270.6 Fab binding to R327A mutant 92BR SOSIP.664 Env trimer. Further details: species or system HIV-1. The protocol: The SOSIP.664 constructs were cloned into the same pVRC-8400 vector described above for Fabs and any mutations were added by site-directed mutagenesis using manufacturer’s protocols (Stratagene). SOSIP.664 constructs were transfected along with a plasmid encoding the cellular protease furin at a 3:1 Env:furin ratio in 293F cells, adapted to grow in suspension from HEK293T cells (ATCC: CRL-3216). The expression construct of furin was kindly provided by Bing Chen (Boston Children’s Hospital, Boston, MA). The cells were allowed to express soluble SOSIP trimers for 5–7 days, and gp120 monomers were expressed for 5 days. Culture supernatants were collected and cells were removed by centrifugation at 3800 × g for 20 min, and filtered with a 0.2 µm pore size filter. Envs were purified by flowing the supernatant over a lectin (Galanthus nivalis) affinity chromatography column overnight at 4 °C. The lectin column was washed with 1× PBS, followed by a second wash with 1× PBS and 0.5 M NaCl and proteins were eluted with 1× PBS supplemented with 0.5 M methyl-α-D-mannopyranoside and 0.5 M NaCl. […]
Kinetic measurements of Fab binding to the SOSIP.664 constructs were carried out using the Octet QK^e system (ForteBio); 0.2 mg/ml of each His-tagged Fab was immobilized onto a anti-Human Fab-CH1 biosensor until it reached saturation. […] Association and dissociation were each monitored for 5 min. […]
(In general: Biolayer interferometry detects binding as a change in optical thickness at a sensor tip.)

Assay [2] relates to HIV-1 (autologous and heterologous viruses). The note with it: cited from earlier work. An excerpt: A synthetic V3-loop glycopeptide (“Man9-V3”), described recently, presents the conformational epitopes needed for the binding of N332 glycan-dependent bnAbs[24], [25]. The peptide design derives from the JRFL mini-V3 gp120 outer domain, used previously for determining a crystal structure with the Fab of bnAb PGT128[9]. The synthetic V3 glycopeptide, which has Man9 glycans (Man9GlcNAc2) at N332 and N301[24] and a 14-residue tip deleted, was used to identify the V3-glycan bnAb DH270.6 (12.9% mutated nucleotides and 71% neutralization breadth[12]) by labeling the B-cell receptor (BCR) on cells fr ... || We describe here a high-resolution crystal structure of “Man9-V3” bound with the single chain variable fragment (scFv) of the N332-glycan dependent bnAb, DH270.6. We have also determined a structure of the Fab of a clonally related member of this lineage, DH270.3 (11.8% mutated nucleotides and 42% neutralization breadth), in complex with a synthetic Man9 glycan. These clonally related antibodies have similar numbers of mutation, but their neutralization breadth and potency differ substantially. Through structural analysis of these two related antibodies, we can account for differences in b ... || Somatic hypermutation is biased by the preference of the activation-induced cytidine deaminase (AID) for certain microsequence motifs (“hot spots”)[28], [29]. […]

A further assay has as its target wild-type 92BR SOSIP.664. The experiment in a line: Biolayer interferometry (Octet QKe), Fab binding to wild-type 92BR SOSIP.664 Env trimer. Also on record: species or system HIV-1. To be noted: for Kd / change in Env interaction/affinity of DH270.6 mutant relative to DH270.6: Table 2; for Kd: Fab 0.2 mg/ml immobilized on anti-Human Fab-CH1 biosensor, trimer 0.1 μM to 0.6 μM, association and dissociation 5 min each, 1000 rpm, duplicate measurements, error SEM, read-out: KD of Fab complexes with wild-type 92BR SOSIP.664; for change in Env interaction/affinity of DH270.6 mutant relative to DH270.6: 92BR SOSIP.664 Env trimer. The procedure:
The SOSIP.664 constructs were cloned into the same pVRC-8400 vector described above for Fabs and any mutations were added by site-directed mutagenesis using manufacturer’s protocols (Stratagene). SOSIP.664 constructs were transfected along with a plasmid encoding the cellular protease furin at a 3:1 Env:furin ratio in 293F cells, adapted to grow in suspension from HEK293T cells (ATCC: CRL-3216). The expression construct of furin was kindly provided by Bing Chen (Boston Children’s Hospital, Boston, MA). The cells were allowed to express soluble SOSIP trimers for 5–7 days, and gp120 monomers were expressed for 5 days. Culture supernatants were collected and cells were removed by centrifugation at 3800 × g for 20 min, and filtered with a 0.2 µm pore size filter. Envs were purified by flowing the supernatant over a lectin (Galanthus nivalis) affinity chromatography column overnight at 4 °C. The lectin column was washed with 1× PBS, followed by a second wash with 1× PBS and 0.5 M NaCl and proteins were eluted with 1× PBS supplemented with 0.5 M methyl-α-D-mannopyranoside and 0.5 M NaCl. The eluate was concentrated and loaded onto a Superdex 200 10/300 GL column (GE Life Sciences) pre-equilibrated in a buffer of 2.5 mM Tris, pH 7.5, 350 mM NaCl and 0.02% sodium azide for BLI and in 10 mM Hepes, pH 8.0, 150 mM NaCl and 0.02% sodium azide for negative stain EM, to separate the trimer-size oligomers from aggregates and gp140 monomers and to separate gp120 monomers from aggregates.
Kinetic measurements of Fab binding to the SOSIP.664 constructs were carried out using the Octet QK^e system (ForteBio); 0.2 mg/ml of each His-tagged Fab was immobilized onto a anti-Human Fab-CH1 biosensor until it reached saturation. The SOSIP.664 trimers were tested at concentrations of 0.1 μM to 0.6 μM. A reference sample of buffer alone was used to account for any signal drift that was observed during the experiment. Association and dissociation were each monitored for 5 min. All experiments were conducted in the Octet instrument with agitation at 1000 rpm.
Analyses were performed using nonlinear regression curve fitting using the Graphpad Prism software, version 7.

Assay [3] deals with DH270.6 Fab (human). Briefly: BLI; Octet QKe; 0.2 mg/ml His-tagged Fab immobilised on an anti-Human Fab-CH1 biosensor; SOSIP.664 trimers at 0.1 to 0.6 μM; association and dissociation 5 min each; agitation 1000 rpm.
Assay [4] concerns the target DH270.6 Fab Y48L (light chain) (human). Briefly: BLI.
Assay [5] concerns the target DH270.6 Fab S103G (heavy chain) (human). Briefly: BLI.
Assay [6] deals with DH270.6 Fab T98R (heavy chain) (human). Briefly: BLI.
The target in assay [7] is DH270.6 Fab (human). The experiment in a line: BLI; Octet QKe; 0.2 mg/ml His-tagged Fab immobilised on an anti-Human Fab-CH1 biosensor; SOSIP.664 trimers at 0.1 to 0.6 μM; association and dissociation 5 min each; agitation 1000 rpm. The source holds these as a separate data set.
In assay [8] the target is biotinylated Man9-V3 glycopeptide (HIV-1 (strain JRFL)). The experiment in a line: BLI; BLItz instrument; 0.2 mg/ml biotinylated Man9-V3 immobilised on a streptavidin biosensor; DH270.6 Fab at 40, 15, 5, 1.5 and 0.25 μM; 22 °C; duplicate measurements; kd calculated as the product of ka and KD.
The target of assay [9] is DH270.6 Fab (human). Briefly: BLI.

These results are taken from paper PMC5856820, “HIV envelope V3 region mimic embodies key features of a broadly neutralizing antibody lineage epitope” (Nature Communications, 2018).

As for “DH270.6: V3-glycan broadly neutralizing antibody of DH270 lineage from HIV-1 infected donor CH848”, the “DH270.6 Fabs bound per trimer” value in the assay with 92BR SOSIP.664 trimer is reported as “three”. Also, the “affinity of Env R327A mutant for DH270.6 relative to wild-type” value in [1] (Fig. 4a, compared with wild-type counterpart) is listed as “only a slightly lower affinity”. Further, the Kd in assay [1] (read-out: KD, R327A mutant 92BR SOSIP.664 Env tested with DH270.6 Fab, Fig. 4a legend, Fab immobilized on anti-Human Fab-CH1 biosensor, trimer 0.1 μM to 0.6 μM) was determined as 7.64 nM; at wild-type 92BR SOSIP.664, 11 ± 1 nM. The neutralization breadth in [2] was 71%.
As to “92BR SOSIP.664 Env trimer, wild type (complex)”, the Kd in the assay with DH270.6 Fab (human) [3] is 11 nM; in [4] it was 44 nM; in [5], 19 nM; in assay [6], 46 nM; with DH270.6 Fab (human) [7], 2.76 nM.
Take DH270.6 Fab: the Kd in assay [8] is 7000 nM.
Turning to “DH270.6 S103GH: DH270.6 Fab with heavy-chain S103G mutation”, the “change in Env interaction/affinity of DH270.6 mutant relative to DH270.6” value in the assay with wild-type 92BR SOSIP.664 (Fig. 4b) was “weakens the Env interaction twofold”. Further, on wild-type 92BR SOSIP.664, the Kd came out at 19 ± 1 nM.
For “DH270.6 T98RH: DH270.6 Fab with heavy-chain T98 reverted to Arg”, the “binding with 92BR SOSIP.664 Env trimer” value in the assay with wild-type 92BR SOSIP.664 (reversion mutant of DH270.6, Fig. 4b) is “only negligible residual binding”.
Take “92BR SOSIP.664 Env trimer, R327A mutant (complex)”: the Kd with DH270.6 Fab (human) [9] was found to be 7.64 nM.

B1: DH270.6 Y48LL: DH270.6 Fab with light-chain Y48 mutated to leucine, as in the UCA (antibody, V domains shown)
VH: QVQLVQSGAQMKNPGASVKVSCAPSGYTFTDFYIHWLRQAPGQGLQWMGWMNPQTGRTNTARNFQGRVTMTRDTSIGTAYMELRSLTSDDTAIYYCTTGGWISLYYDSSYYPNFDHWGQGTLLTVSS
VL: QSALTQPASVSGSPGQSITISCTGTKYDVGSHDLVSWYQQYPGKVPKLMIYEVNKRPSGVSNRFSGSKSGNTASLTISGLRAEDEADYYCCSFGGSATVVCGGGTKVTVL
Consider B1, for which the “change in Env interaction/affinity of DH270.6 mutant relative to DH270.6” value in the assay on wild-type 92BR SOSIP.664 (Fig. 4b) is reported as “fourfold lower affinity”. Also, the Kd at wild-type 92BR SOSIP.664 was found to be 44 ± 2 nM.

What is called Kd is the concentration at which binding is half-saturated.
